Measured values taken from the supplement of paper PMC9112550, “Optimization of the antimicrobial peptide Bac7 by deep mutational scanning” (BMC Biology, 2022).

Test system: Escherichia coli TOP10
Test: shrunken log2 fold change of peptide-encoding DNA abundance (4.5 h post-induction vs induction); higher = less antimicrobial activity (less host growth inhibition)
Conditions: time post-induction: 4.5 h; library: site-saturation at positions 5, 18, 19, 20
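Note: peptides expressed intracellularly from a pBAD plasmid library in pooled LB shake-flask culture, induced with 0.3% L-arabinose, DNA abundance read by NGS, three biological replicates, DESeq2 with apeglm shrinkage.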

Sequence | shrunken log2 fold change
RRIRTRPPRLPRPRPRPFLIPRP | -0.378
RRIRLRPPRLPRPRPRPSPTPRP | 1.06
RRIRWRPPRLPRPRPRPCETPRP | -0.0636
RRIRTRPPRLPRPRPRPTVAPRP | 0.22
RRIRMRPPRLPRPRPRPGFTPRP | 0.00309
RRIRARPPRLPRPRPRPMSGPRP | 0.0632
RRIRNRPPRLPRPRPRPDILPRP | -0.156
RRIRNRPPRLPRPRPRPPRWPRP | 0.147
RRIRHRPPRLPRPRPRPSFEPRP | -0.358
RRIRLRPPRLPRPRPRPTGSPRP | -0.0138
RRIRVRPPRLPRPRPRPSEGPRP | -0.116
RRIRKRPPRLPRPRPRPSWWPRP | 0.138
RRIRKRPPRLPRPRPRPDMCPRP | 0.217
RRIRGRPPRLPRPRPRPQRRPRP | 0.565
RRIRFRPPRLPRPRPRPLAFPRP | -0.134
RRIRNRPPRLPRPRPRPLMRPRP | 0.627
RRIRERPPRLPRPRPRPTYGPRP | 0.158
RRIRQRPPRLPRPRPRPFDTPRP | -0.144
RRIRLRPPRLPRPRPRPDGAPRP | 0.0651
RRIRVRPPRLPRPRPRPTHCPRP | 0.233
RRIRDRPPRLPRPRPRPDCRPRP | 0.249
RRIRGRPPRLPRPRPRPVAHPRP | 0.548
RRIRWRPPRLPRPRPRPTEMPRP | -0.00675
RRIRGRPPRLPRPRPRPDTMPRP | 0.00209
RRIRWRPPRLPRPRPRPCLSPRP | -0.15

Sequence | shrunken log2 fold change
RRIRSRPPRLPRPRPRPADGPRP | 0.218
RRIRDRPPRLPRPRPRPSGVPRP | 0.119
RRIRTRPPRLPRPRPRPKVVPRP | 2.37
RRIRKRPPRLPRPRPRPTIHPRP | -0.087
RRIRERPPRLPRPRPRPSGIPRP | -0.272
RRIRNRPPRLPRPRPRPNQLPRP | -0.228
RRIRERPPRLPRPRPRPCWMPRP | -0.239
RRIRFRPPRLPRPRPRPCKGPRP | 0.000407
RRIRQRPPRLPRPRPRPDFCPRP | -0.129
RRIRQRPPRLPRPRPRPYDEPRP | -0.00145
RRIRQRPPRLPRPRPRPMYFPRP | -0.448
RRIRLRPPRLPRPRPRPGHNPRP | -0.371
RRIRGRPPRLPRPRPRPRENPRP | 0.978
RRIRPRPPRLPRPRPRPNINPRP | -0.795
RRIRARPPRLPRPRPRPLKWPRP | 0.218
RRIRKRPPRLPRPRPRPAFHPRP | 0.0641
RRIRERPPRLPRPRPRPHTFPRP | -0.14
RRIRRRPPRLPRPRPRPTRIPRP | 0.71
RRIRHRPPRLPRPRPRPQNKPRP | -0.654
RRIRHRPPRLPRPRPRPPDLPRP | 0.0765
RRIRQRPPRLPRPRPRPFFRPRP | -0.236
RRIRKRPPRLPRPRPRPHLDPRP | 0.00976
RRIRCRPPRLPRPRPRPVAFPRP | -0.169
RRIRKRPPRLPRPRPRPVDLPRP | -0.0854
RRIRVRPPRLPRPRPRPSVQPRP | -0.0929

Sequence | shrunken log2 fold change
RRIRERPPRLPRPRPRPHWLPRP | -0.128
RRIRLRPPRLPRPRPRPCFMPRP | -0.311
RRIRDRPPRLPRPRPRPTREPRP | 1.46
RRIRKRPPRLPRPRPRPSRYPRP | 0.086
RRIRQRPPRLPRPRPRPRKAPRP | -0.0029
RRIRSRPPRLPRPRPRPIRVPRP | 0.047
RRIRNRPPRLPRPRPRPEPLPRP | 0.00741
RRIRLRPPRLPRPRPRPPPLPRP | 1.12
RRIRIRPPRLPRPRPRPIWQPRP | 0.182
RRIRGRPPRLPRPRPRPACSPRP | 0.773
RRIRPRPPRLPRPRPRPDLAPRP | 0.316
RRIRARPPRLPRPRPRPGMHPRP | 0.233
RRIRCRPPRLPRPRPRPQEGPRP | -0.0193
RRIRERPPRLPRPRPRPGACPRP | 0.0171
RRIRHRPPRLPRPRPRPEDVPRP | -0.00992
RRIRYRPPRLPRPRPRPKCYPRP | -0.112
RRIRDRPPRLPRPRPRPLHLPRP | -0.0348
RRIRRRPPRLPRPRPRPERRPRP | 0.418
RRIRLRPPRLPRPRPRPCTWPRP | 0.0461
RRIRKRPPRLPRPRPRPQSLPRP | -0.017
RRIRIRPPRLPRPRPRPFGEPRP | -0.202
RRIRSRPPRLPRPRPRPNLAPRP | -0.14
RRIRYRPPRLPRPRPRPRPEPRP | 0.254
RRIRFRPPRLPRPRPRPMGRPRP | 0.103
RRIRMRPPRLPRPRPRPVEAPRP | 0.396

Sequence | shrunken log2 fold change
RRIRFRPPRLPRPRPRPKVYPRP | -0.382
RRIRPRPPRLPRPRPRPALNPRP | 0.0983
RRIRKRPPRLPRPRPRPRNSPRP | -0.0385
RRIRERPPRLPRPRPRPLLTPRP | -0.116
RRIRGRPPRLPRPRPRPKISPRP | 0.477
RRIRTRPPRLPRPRPRPEKQPRP | -0.0379
RRIRLRPPRLPRPRPRPREPPRP | 0.139
RRIRARPPRLPRPRPRPIGKPRP | -0.00841
RRIRLRPPRLPRPRPRPPGQPRP | 0.625
RRIRWRPPRLPRPRPRPWFCPRP | -0.0932
RRIRPRPPRLPRPRPRPLALPRP | 0.193
RRIRQRPPRLPRPRPRPMDEPRP | 0.0268
RRIRKRPPRLPRPRPRPRQKPRP | -0.0264
RRIRSRPPRLPRPRPRPTNDPRP | -0.162
RRIRARPPRLPRPRPRPINQPRP | -0.195
RRIRMRPPRLPRPRPRPPWIPRP | 0.248
RRIRRRPPRLPRPRPRPLALPRP | 0.396
RRIRWRPPRLPRPRPRPVNEPRP | -0.0791
RRIRSRPPRLPRPRPRPHRKPRP | -0.077
RRIRSRPPRLPRPRPRPIIFPRP | -0.35
RRIRRRPPRLPRPRPRPFKPPRP | 0.174
RRIRIRPPRLPRPRPRPHDNPRP | -0.53
RRIRERPPRLPRPRPRPEDWPRP | 0.351
RRIRQRPPRLPRPRPRPYMKPRP | -0.521
RRIRVRPPRLPRPRPRPVRAPRP | 0.616

Sequence | shrunken log2 fold change
RRIRLRPPRLPRPRPRPKRCPRP | -0.0395
RRIRERPPRLPRPRPRPHKNPRP | -0.206
RRIRVRPPRLPRPRPRPIYYPRP | -0.455
RRIRERPPRLPRPRPRPDVIPRP | -0.502
RRIRNRPPRLPRPRPRPRWPPRP | 0.286
RRIRSRPPRLPRPRPRPNGTPRP | -0.188
RRIRTRPPRLPRPRPRPWFMPRP | -0.364
RRIRKRPPRLPRPRPRPAKIPRP | -0.266
RRIRRRPPRLPRPRPRPHWVPRP | 0.0391
RRIRHRPPRLPRPRPRPFGSPRP | -0.0134
RRIRPRPPRLPRPRPRPAICPRP | 0.0446
RRIRRRPPRLPRPRPRPCTGPRP | 0.0659
RRIRWRPPRLPRPRPRPVMTPRP | 0.569
RRIRYRPPRLPRPRPRPWGFPRP | -0.167
RRIRWRPPRLPRPRPRPCHPPRP | -0.11
RRIRERPPRLPRPRPRPYHVPRP | 0.0464
RRIRGRPPRLPRPRPRPPLDPRP | 0.989
RRIRYRPPRLPRPRPRPQYMPRP | -0.192
RRIRRRPPRLPRPRPRPDCSPRP | -0.27
RRIRERPPRLPRPRPRPDVDPRP | 0.0225
RRIRKRPPRLPRPRPRPRVDPRP | 0.0968
RRIRWRPPRLPRPRPRPFYSPRP | -0.681
RRIRVRPPRLPRPRPRPPEPPRP | 0.382
RRIRKRPPRLPRPRPRPSFCPRP | -0.0321
RRIRSRPPRLPRPRPRPIWSPRP | 0.0119

Sequence | shrunken log2 fold change
RRIRARPPRLPRPRPRPTMCPRP | -0.198
RRIRFRPPRLPRPRPRPHYGPRP | 0.0398
RRIRHRPPRLPRPRPRPVDEPRP | 0.184
RRIRPRPPRLPRPRPRPTEQPRP | 0.307
RRIRQRPPRLPRPRPRPQSWPRP | 0.0219
RRIRKRPPRLPRPRPRPCHMPRP | -0.538
RRIRVRPPRLPRPRPRPIRIPRP | -0.0273
RRIRKRPPRLPRPRPRPKSMPRP | 0.375
RRIRCRPPRLPRPRPRPQLIPRP | 0.229
RRIRERPPRLPRPRPRPDDCPRP | -0.0573
RRIRWRPPRLPRPRPRPKSFPRP | 0.0955
RRIRPRPPRLPRPRPRPNFDPRP | -0.0128
RRIRTRPPRLPRPRPRPWTTPRP | 0.176
RRIRNRPPRLPRPRPRPTNVPRP | 0.0366
RRIRNRPPRLPRPRPRPWCIPRP | -0.573
RRIRDRPPRLPRPRPRPHQIPRP | -0.248
RRIRTRPPRLPRPRPRPFKSPRP | -0.0217
RRIRTRPPRLPRPRPRPEQVPRP | -0.00471
RRIRNRPPRLPRPRPRPQWVPRP | 0.00681
RRIRCRPPRLPRPRPRPFFMPRP | -0.201
RRIRFRPPRLPRPRPRPRDYPRP | -0.2
RRIRMRPPRLPRPRPRPGETPRP | 0.0143
RRIRERPPRLPRPRPRPCFRPRP | -0.511
RRIRFRPPRLPRPRPRPSEAPRP | -0.0845
RRIRWRPPRLPRPRPRPRLHPRP | 0.191
